# Source: the supplement of paper PMC9170038
# Tests used:
# MS2 coat protein [1] = test: apparent KD of MS2 coat protein, switch ON state; designed switch direction (-1 OFF switch, 1 ON switch): -1; higher = weaker reporter binding; settings: FMN input: 0 or 200 uM; Eterna round: R93 (includes R88 designs)
# How it was run: (§1)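 Apparent KD is reported per design as the median of normalised binding-curve fits across its clusters. The RNA switches were made by on-chip transcription from Illumina sequencing clusters. SNAP-549-labelled MS2 coat protein was then added in twofold steps (0.7 or 1.5 nM to 3 µM; 0.8–1.5 h to 10–20 min per step) in 100 mM Tris-HCl pH 7.5, 80 mM KCl, 4 mM MgCl2, without or with constant ligand.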
# MS2 coat protein [2] = test: apparent KD of MS2 coat protein, switch OFF state (with FMN for OFF switches, without FMN for ON switches); designed switch direction (-1 OFF switch, 1 ON switch): -1; higher = weaker reporter binding; settings: FMN input: 0 or 200 uM; Eterna round: R93 (includes R88 designs)
# How it was run: as §1
Sequence,apparent KD of MS2 coat protein (MS2 coat protein [1]) [nM],apparent KD of MS2 coat protein (MS2 coat protein [2]) [nM]
AACAGUACAGGAUAUACAUGAGGAUCACCCAUGUAGAGAGAAUAAAACAAAAAUAAAAGUAGAAGGGUACUGGA [Ruby 48],21.8,19.3
AACAGUACAGGAUAUACAUGAGGAUCACCCAUGUGAAAAUUAAGUGGGAAACCACAAAGUAGAAGGGUACUGAA [Mat - Exclusion 3 - Eli mod - D59],22,114
AACAGUACAGGAUAUACAUGAGGAUCACCCAUGUGAAAAUUAAGUGGGAAACCACAAGGUAGAAGGGUACUGGA [Mat - Exclusion 3 - Eli mod - D64],27.1,157
AACAGUACAGGAUAUACAUGAGGAUCACCCAUGUGAAAAUUAAGUGGGAAACCACAGUGUAGAAGGGUACUGGA [Mat - Exclusion 3 - Eli mod - D54],102,51.9
AACAGUACAGGAUAUACAUGAGGAUCACCCAUGUGAAAGAAAAGUGGCGUACCACAAAGUAGAAGGGUACUGGA [Mat - Exclusion 3 - JL mod - D23],26.9,122
AACAGUACAGGAUAUACAUGAGGAUCACCCAUGUGAGAAUUAAGCAGCGUAACACACAGUAGAAGGGUAAUGGA [Ruby 20],46.4,40.7
AACAGUACAGGAUAUACAUGAGGAUCACCCAUGUGAGAAUUAAGUGGAGAACCACAAAGUAGAAGGGUACUGAA [Mat - Exclusion 3 - JL mod - D8],39.2,147
AACAUGUCAGGAUAUGUAGCAAAAAGUGAUCCAAAAAAGCUACAGAAGGGACAUGAGGAUCACCCAUGUAAAAA [Ex4: 933],124,44.5
AACCAACAUGAGGAUCACCCAUGUCAGGAUAUGCAAACAACAAACAACAAACAACAAAGCAGAAGGGACAAAAA [Amethyst 82],17.8,19.5
AACGGGCUAGGAUAUACACAAGCCUCAUAACAAAUAAACAAACAUGAGGAUCACCCAUGUAGAAGGAGCGCAAA [Quraaon],33,72.5
AACUAGUGAGGAUAUGCAAGAAAAAAAAAAAAAAUAAAGGGACAUGAGGAUCACCCAUGUAGAAGGCACUAACA [Diamond 68],42.7,58.8
AACUGACAUGAGGAUCACCCAUGUCAGGAUAUGACAUCGAAAAAAAAAAAAAUCGUUGUCAGAAGGGACAUGAA [Design 77: Sub-opt SB],16.7,13.1
AACUGACAUGAGGAUCACCCAUGUCAGGAUAUGACAUCGAAAAAAAAAAAAAUCGUUGUCAGAAGGGACAUGGG [Design 73: Sub-opt QB],11.9,9.44
AACUGACAUGAGGAUCACCCAUGUCAGGAUAUGAUUUGACGAAAAAAAAUAAGUCAUAUCAGAAGGGACAUGGA [Design 84: Sub-opt WB],26,45
AACUGACAUGAGGAUCACCCAUGUCAGGAUAUGCAUCUUAGGAAAAAAAAACUAAGAUGCAGAAGGGACAUGGG [Design 3: Super Stable 3],16.8,15.8
AACUGACAUGAGGAUCACCCAUGUCAGGAUAUGCUUCAUAAAAAAAAAAAAAAAUGAUGCAGAAGGGAUAUGGA [Design 36 :P Sub-opt 12],21.5,13.6
"AACUGGGCAGGAUAUACAUGAGGAUCACCCAUGUAAAGAAAAGAAAGGUCCGAGGAAAGUAGAAGGGCCUGGAA [Variant 5 of Mod 1 of Ex3 sub 3, by Tesla's Dusciple Round 1]",40.6,38.9
AAGAAACAUGAGGAUCACCCAUGUCAGGAUAUUGAAAAGAAAAGAAAAGAAAGAAGAACAAGAAGGGACAAAGG [Neferkare (III) Neby],37.1,40.3
AAGAACAGAGGAUAUACUAAAGAAAUGAAAAGAAAGAAAGAACAUGAGGAUCACCCAUGUAGAAGGCUGAAGAA [Yakbim Sekhaenre],25.9,13.5
AAGAACAGAGGAUAUGCUAAAGAAAUAAAAAUAAAUAAAGAACAUGAGGAUCACCCAUGUAGAAGGCUGAAGAA [Seven kings],28.3,28

Sequence,apparent KD of MS2 coat protein (MS2 coat protein [1]) [nM],apparent KD of MS2 coat protein (MS2 coat protein [2]) [nM]
AAGAAGACAGGAUAUACAUGAAAGAAAGAAAAGAAAAGAAAACAUGAGGAUCACCCAUGUAGAAGGGUCAAGAA [EteRNA is fun!],23.5,34.9
AAGAAGGCAGGAUAUACAAAAUAAAAGAAAAGAAAGAAAGAACAUGAGGAUCACCCAUGUAGAAGGGCCAAGAA [Seankhibre Amenemhet VI],58.3,37.2
AAGAAGGUAGGAUAUACUAAAGAAACUAAUGCAAAGAUAAAACAUGAGGAUCACCCAUGUAGAAGGGCCAGAAA [JR_Exc002_Sub016],35.6,25.1
AAGAAGGUAGGAUAUACUAACGAAACUAAUGCAUAGAUAAAACAUGAGGAUCACCCAUGUAGAAGGGCCAGAAU [JR_Exc002_Sub015],43.8,26.6
AAGAAGGUAGGAUAUACUAGGGCAACUAAUGCAAAGAUAGAACAUGAGGAUCACCCAUGUAGAAGGGCCAGAAA [JR_Exc002_Sub402],35.7,40.5
AAGAAGUCAGGAUAUGCCAGAGAUCACGAAAGUGACGAGUAGCAGAAGGGACAUGAGGAUCACCCAUGUAAAGA [Opal 7],39.8,45
AAGAAGUGAGGAUAUACGCGAACAAAAAAAAAAAAGAAAGCGUAGAAGGCACAUGAGGAUCACCCAUGUCCAAA,27.7,34.9
AAGAAGUGAGGAUAUAGUUGCACUAGCUAAUGCUAGUGCAACUAGAAGGCACAUGAGGAUCACCCAUGUAAAAG [Meechl Ex4 2],40.6,46.7
AAGAAGUGAGGAUAUCGAAGACUGUCGAAAAGACAGUCGAACGAGAAGGCACAUGAGGAUCACCCAUGUGAUAA [Mat - Exaclusion 4 - Eli mod - D70],28.2,107
AAGAAGUGAGGAUAUGCUGCUCGUCACAAAAGUGAUGAGUAGCAGAAGGCACAUGAGGAUCACCCAUGUAAAGA [JL eternac mod 1],40.6,48.8
AAGAAUCGAGGAUAUACAUGAGGAUCACCCAUGUAAAAGAAAGAGGGAAAAGAGAAAAGUAGAAGGCGAAAGAA [Ptolemy Memphitis],45.9,21.6
AAGAAUGAAGGAUAUACAUGAGGAUCACCCAUGUAAGAGAAAGAGGGAAAAGAGAAAAGUAGAAGGUCAAAGAA [Ruby 72],22,33.7
AAGAGGUCAGGAUAUGCCCACCAGGAAAAACGUCCAGGUGGGCAGAAGGGACAUGAGGAUCACCCAUGUAAAGA [Opal 41],44.8,114
AAGAGGUGAGGAUAUCGAAGAAGAAGAAGAAGAAGAAGAAACGAGAAGGCACAUGAGGAUCACCCAUGUAAGAA [Exclusion 4],23.4,18.8
AAGAGUAGAGGAUAUACAUGAGGAUCACCCAUGUAAUCCGGAUAAGGAAGCAUGUCGUGUAGAAGGCUGCAUGA [MOD 3 of Nando (MS2 Riboswitches- Exclusion 3)],15.5,14.1
AAGAUCAGAGGAUAUACAUAAGGUGAUGGAAACAUCGCCAAACAUGAGGAUCACCCAUGUAGAAGGCUGAUCAA [Mat - Exclusion 2 - JL mod - D61],35.7,43.7
"AAGGGACAUGAGGAUCACCCAUGUCAGGAUAUGAUGCGAAUAAAGAAAGAAGAAAGCAUCAGAAGGGACGCCAA [58%, Disencluded 3, 5]",25.4,39.5
"AAGGGACAUGAGGAUCACCCAUGUCAGGAUAUGAUGCGAAUAAAGAAAGAAGAAAGCAUCAGAAGGGACGCCUA [58%, Disencluded 3, 6]",19.3,27.6
AAGGGACAUGAGGAUCACCCAUGUCAGGAUAUGCGAAAAAAAAAAAUAAAAAAAAAAAGCAGAAGGGACACCAA [Mat - Exclusion 1 - Eli mod - D58],104,102
